Source: patent US20110152173A1 (EMERGENT PRODUCT DEVELOPMENT SEATTLE, published 2011)
Values belong to the binder of their own block, whether it stands above or below them.

Legend:
[1] = biological target: T1, TRU(XT6)-1042; experiment: ELISA: Xceptor captured on anti-human IgG-Fc, sIL-6R added, detected with anti-IL-6R-biotin
T1 construct: not trimmed; also called Xceptor TNFRSF1B::anti-HIL6
Protocol: Added to each well of a 96-well plate was 100 μl goat anti-human IgG-Fc (ICN Pharmaceuticals, Costa Mesa, Calif.) from a 2 μg/ml solution in PBS, pH 7.2-7.4. The plates were covered, and incubated overnight at 4° C. After washing four times with PBS-T, 250 μl Blocking buffer (PBS-T with 3% BSA or 10% normal goat serum) was added to each well, the plate was covered, and incubated at room temperature for 2 hours (or at 4° C. overnight). […] After washing the plate five times with PBS-T, added in duplicate wells was 100 μl/well recombinant human sIL-6R(R&D Systems) from a […] solution in Working buffer, the plate was covered, and incubated at room temperature for about 1 to 2 hours. After washing the plate five times with PBS-T, added 100 μl/well anti-human IL-6R-biotin (R&D Systems) from a 100 ng/ml solution in Working buffer, the plate was covered, and incubated at room temperature for about 1 to 2 hours. After washing the plate five times with PBS-T, 100 μl per well horse radish peroxidase-conjugated streptavidin (Zymed, San Francisco, Calif.) diluted 1:4,000 in Working buffer was added, the plate was covered, and incubated at room temperature for 30 minutes. After washing the plate six times with PBS-T, 100 μl per well 3,3,5,5-tetramentylbenzidine (TMB) substrate solution (Pierce, Rockford, Ill.) was added for about 3 to 5 minutes and then the reaction was stopped with 50 μl Stop buffer (1N H₂SO₄) per well. The absorbance of each well was read at 450 nm.

[2] = biological target: T2, human IL7 (human, UniProt P13232 26-177); experiment: ELISA: plate-coated ligand, Xceptor detected with HRP anti-human IgG-Fc
T2 sequence (looked up): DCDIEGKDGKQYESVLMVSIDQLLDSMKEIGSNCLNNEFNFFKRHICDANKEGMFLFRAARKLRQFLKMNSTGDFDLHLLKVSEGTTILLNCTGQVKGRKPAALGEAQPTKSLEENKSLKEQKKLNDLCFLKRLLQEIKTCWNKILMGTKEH
Protocol: (§1) Mouse and human ligands (R&D Systems, Minnesota, MN) were added to wells of a 96-well plate at a concentration of 1 μg/ml in PBS (100 μl/well). Plates were incubated at 4° C. overnight. After washing five times with PBS-T, 250 μl Blocking Buffer (PBS-T with 3% BSA) was added to each well, and the plate covered and incubated at room temperature (RT) for 2 hours. Serial three fold dilutions of xceptors were made in Working Buffer (PBS-T with 1% BSA) starting at 300 ng/ml. As a negative control, an irrelevant xceptor was used. The plate was incubated at RT for 1 hour. After washing five times with PBS-T, 100 μl per well of HRP-conjugated anti-human IgG-Fc (1:5000 in Working buffer) was added, the plate covered, and incubated at RT for 1 hour. After washing five times with PBS-T, 100 µl of Quant-Blu substrate (Pierce, Rockford, Ill.) was added to each well. The plate was incubated at RT for 10-30 minutes, and fluorescence measured at 325/420 nm.

[3] = biological target: T3, human RANKL (human, UniProt O14788 140-317, limits assumed); experiment: as above
T3 sequence (looked up): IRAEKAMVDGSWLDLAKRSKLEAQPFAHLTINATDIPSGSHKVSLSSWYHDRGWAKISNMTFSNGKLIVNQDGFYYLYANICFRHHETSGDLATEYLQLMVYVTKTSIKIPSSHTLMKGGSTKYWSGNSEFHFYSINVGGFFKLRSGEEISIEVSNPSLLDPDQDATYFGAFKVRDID
Protocol: as §1

[4] = biological target: T4, mouse RANKL (mouse, UniProt O35235 158-316, limits assumed); experiment: as above
T4 construct: also called mRANKL
T4 sequence (looked up): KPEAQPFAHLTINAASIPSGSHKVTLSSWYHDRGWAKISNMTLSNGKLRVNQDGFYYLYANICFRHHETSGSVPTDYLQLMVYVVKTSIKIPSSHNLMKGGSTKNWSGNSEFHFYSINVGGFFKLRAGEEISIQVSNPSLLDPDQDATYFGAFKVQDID
Protocol: as §1

binding result [1]: no binding
B1: recombinant human sIL-6R (receptor)
chain: LAPRRCPAQEVARGVLTSLPGDSVTLTCPGVEPEDNATVHWVLRKPAAGSHPSRWAGMGRRLLLRSVQLHDSGNYSCYRAGRPAGTVHLLVDVPPEEPQLSCFRKSPLSNVVCEWGPRSTPSLTTKAVLLVRKFQNSPAEDFQEPCQYSQESQKFSCQLAVPEGDSSFYIVSMCVASSVGSKFSKTQTFQGCGILQPDPPANITVTAVARNPRWLSVTWQDPHSWNSSFYRLRFELRYRAERSKTFTTWMVKDLQHHCVIHDAWSGLRHVVQLRAQEEFGQGEWSEWSPEAMGTPWTESRSPPAENEVSTPMQALTTNKDDDNILFRDSANATSLPVQD
notes: Bought; also called human soluble IL6R

binding result [2]: binds
B2: Xceptor comprising a TNFRSF1B ectodomain and an IL7R ectodomain (Fc fusion)
chain: LPAQVAFTPYAPEPGSTCRLREYYDQTAQMCCSKCSPGQHAKVFCTKTSDTVCDSCEDSTYTQLWNWVPECLSCGSRCSSDQVETQACTREQNRICTCRPGWYCALSKQEGCRLCAPLRKCRPGFGVARPGTETSDVVCKPCAPGTFSNTTSSTDICRPHQICNVVAIPGNASMDAVCTSTSPTRSMAPGAVHLPQPVSTRSQHTQPTPEPSTAPSTSFLLPMGPSPPAEGSTGDTGEPKSSDKTHTCPPCPAPEAAGAPSVFLFPPKPKDTLMISRTPEVTCVVVDVSHEDPEVKFNWYVDGVEVHNAKTKPREEQYNSTYRVVSVLTVLHQDWLNGKAYACAVSNKALPAPIEKTISKAKGQPREPQVYTLPPSRDELTKNQVSLTCLVKGFYPSDIAVEWESNGQPENNYKTTPPVLDSDGSFFLYSKLTVDKSRWQQGNVFSCSVMHEALHNHYTQKSLSLSPGQRHNNSSLNTGTQMAGHSPNSESGYAQNGDLEDAELDDYSFSCYSQLEVNGSQHSLTCAFEDPDVNITNLEFEICGALVEVKCLNFRKLQEIYFIETKKFLLIGKSNICVKVGEKSLTCKKIDLTTIVKPEAPFDLSVVYREGANDFVVTFNTSHLQKKYVKVLMHDVAYRQEKDENKWTHVNLSSTKLTLLQRKLQPAAMYEIKVRSIPDHYFKGFWSEWSPSYYFRTPEINNSSGEMDP
notes: also called TNFR × IL7R

binding result [3]: binds | binding result [4]: binds
B3: Xceptor comprising a TNFRSF1B ectodomain and an OPG ectodomain (Fc fusion)
chain: LPAQVAFTPYAPEPGSTCRLREYYDQTAQMCCSKCSPGQHAKVFCTKTSDTVCDSCEDSTYTQLWNWVPECLSCGSRCSSDQVETQACTREQNRICTCRPGWYCALSKQEGCRLCAPLRKCRPGFGVARPGTETSDVVCKPCAPGTFSNTTSSTDICRPHQICNVVAIPGNASMDAVCTSTSPTRSMAPGAVHLPQPVSTRSQHTQPTPEPSTAPSTSFLLPMGPSPPAEGSTGDTGEPKSSDKTHTCPPCPAPEAAGAPSVFLFPPKPKDTLMISRTPEVTCVVVDVSHEDPEVKFNWYVDGVEVHNAKTKPREEQYNSTYRVVSVLTVLHQDWLNGKAYACAVSNKALPAPIEKTISKAKGQPREPQVYTLPPSRDELTKNQVSLTCLVKGFYPSDIAVEWESNGQPENNYKTTPPVLDSDGSFFLYSKLTVDKSRWQQGNVFSCSVMHEALHNHYTQKSLSLSPGQRHNNSSLNTGTQMAGHSPNSETFPPKYLHYDEETSHQLLCDKCPPGTYLKQHCTAKWKTVCAPCPDHYYTDSWHTSDECLYCSPVCKELQYVKQECNRTHNRVCECKEGRYLEIEFCLKHRSCPPGFGVVQAGTPERNTVCKRCPDGFFSNETSSKAPCRKHTNCSVFGLLLTQKGNATHDNICSGNSESTQKCGIDVTLCEEAFFRFAVPTKFTPNWLSVLVDNLPGTKVNAESVERIKRQHSSQEQTFQLLKLWKHQNKDQDIVKKIIQDIDLCENSVQRHIGHANLTFEQLRSLMESLPGKKVGAEDIEKTIKACKPSDQILKLLSLWRIKNGDQDTLKGLMHALKHSKTYHFPKTVTQSLKKTIRFLHSFTMYKLYQKLFLEMIGNQVQSVKISCL
notes: also called TNFR × OPG
